The results in this text go back to patent publication US20150353950A1, “TRANSGENIC PLANTS” (Durham University, priority 2012, published 2015).

For one series, the target named is T1, SUMO1 (Arabidopsis thaliana, UniProt P55852).
T1 construct: His (N); made in house; host or cells: E. coli
The series can be described thus: Far-western / peptide array of GID1 SIM peptides probed with SUMO1. It counts as binding. The note with it: for SIM-SUMO1 interaction (far-western): 1 μg peptide spotted on PVDF, probed with His:proAtSUMO1 (10 μg/ml); for interaction with SUMO1 (peptide array): peptide arrays of GID1 SIMs. On the procedure:
FIGS. 9A-C. GID1a contains a functional SIM motif in the N-terminal region. a, amino acid positions of two putative SIMs (SUMO interacting motifs) in the GID1a N-terminal domain (SEQ ID NO: 59). Lower panel, far-western assays of two peptides corresponding to SIM A (SEQ ID NO: 60) and SIM B (SEQ ID NO: 58). […] Number indicates molecular mass (kDa). Non-transgenic, wild-type extracts (wt) were used as a negative control. c, mean root growth of 10 days old seedlings in the presence of 100 mM NaCl expressed as a inhibition (%) relatively to the untreated controls. Error bar=s.e.m. n=16.
Peptides corresponding to the putative SIMs in GID1 were purchased from Cambridge Research Biochemicals. 1 μg of each peptide was spotted on a PVDF membrane. Membranes were washed in 100% Ethanol, equilibrated in TBST (25 mM Tris HCl, pH 8.0, 150 mM NaCl, 0.05% Tween 20) and blocked in TBST-Milk 5%. Peptides were probed overnight at 4° C. with recombinant His:proAtSUMO1 (10 μg/ml), washed and subsequently probed with SUMO1 antibodies for standard chemoluminescence-based detection.

Series [1] deals with T2, SUMOylated GFP:RGA (plant-derived).
T2 chain 1: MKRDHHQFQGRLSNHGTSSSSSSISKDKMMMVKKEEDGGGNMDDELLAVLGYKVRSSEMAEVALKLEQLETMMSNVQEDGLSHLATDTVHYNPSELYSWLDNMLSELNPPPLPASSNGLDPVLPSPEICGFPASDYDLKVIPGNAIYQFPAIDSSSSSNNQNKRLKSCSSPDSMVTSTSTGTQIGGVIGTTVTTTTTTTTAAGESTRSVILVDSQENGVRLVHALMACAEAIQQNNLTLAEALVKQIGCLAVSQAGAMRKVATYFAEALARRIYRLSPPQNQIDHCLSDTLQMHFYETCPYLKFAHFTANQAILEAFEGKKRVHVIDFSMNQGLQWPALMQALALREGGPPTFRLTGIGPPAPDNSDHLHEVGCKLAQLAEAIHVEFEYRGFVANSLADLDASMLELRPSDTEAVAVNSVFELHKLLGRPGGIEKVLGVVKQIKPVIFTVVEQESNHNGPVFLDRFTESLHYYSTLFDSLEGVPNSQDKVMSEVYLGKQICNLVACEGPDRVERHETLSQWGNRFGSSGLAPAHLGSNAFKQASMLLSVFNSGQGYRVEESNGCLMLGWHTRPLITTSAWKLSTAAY
T2 chain 2: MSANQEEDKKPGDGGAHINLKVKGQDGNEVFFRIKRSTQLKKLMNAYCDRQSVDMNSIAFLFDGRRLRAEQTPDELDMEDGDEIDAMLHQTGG

For series [2], the target named is T3, GID1a (Arabidopsis thaliana, UniProt Q9MAA7).
T3 construct: The GID1a ORF was amplified by PCR from whole cDNAs from seedlings with oligos LC73 and LC74; made in house; host or cells: E. coli
T3 sequence (Q9MAA7 1-345): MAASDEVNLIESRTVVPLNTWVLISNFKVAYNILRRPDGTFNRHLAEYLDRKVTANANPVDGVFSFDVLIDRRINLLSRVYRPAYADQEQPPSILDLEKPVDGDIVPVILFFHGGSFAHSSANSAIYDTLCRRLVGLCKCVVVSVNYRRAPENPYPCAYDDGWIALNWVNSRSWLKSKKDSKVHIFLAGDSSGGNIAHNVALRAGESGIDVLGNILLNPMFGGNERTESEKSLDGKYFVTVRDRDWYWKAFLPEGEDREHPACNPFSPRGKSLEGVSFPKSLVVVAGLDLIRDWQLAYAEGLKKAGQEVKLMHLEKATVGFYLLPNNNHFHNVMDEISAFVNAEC
The series can be described thus: SPR (Biacore 2000) on immobilised GID1a. Type of series: binding. The method, then: FIG. 17. SUMO inhibits GID1a binding to RGA-DELLA protein Interaction between RGA alone with GID1a (red) and, RGA and SUMO1 (AtS1, blue) with GID1a both in the presence of GA3. […] Method: SPR was carried out on a Biacore 2000 instrument at 25° C. Purified GID1a was amine-coupled to a CM5 sensor chip (GE Healthcare). Flow cell 1 was blocked using ethanolamine and used as reference. Approx 500 RU of GID1a was bound to flow cells 2 and 3. All binding assays were carried out in HBS-EP buffer (10 mM HEPES pH 7.5, 150 mM NaCl, 1 mM EDTA, 1 mM DTT, 0.005% P20) at a flow rate of 20 μl/min using 180 second injections followed by 180 s of dissociation in HBS-EP. Each condition was run in duplicate using proteins at 100 μg/ml in HBS-EP (containing 100 μM GA3 as appropriate). Regeneration used 10 mM glycine pH 1.5 at 30 μl/min for 30 s.
FIGS. 18A and B. GID1a—SUMO Interaction Data Sensorgram of interaction between SUMO1 (AtS1) with GID1a.
(SPR reads the build-up and loss of mass on a sensor chip optically.)

Series [3] has as its target T3, GID1a. Briefly: GST pull down assay with GST:GID1a. Type of series: binding. The note with it: presence or absence of GA3 (10 μM). On the procedure: FIGS. 4A-F. SUMOylated DELLA binds GID1 independently from GA. a, crossspecies alignment of SIM B in the GID1 protein amino terminal extension (grey). Alignment discloses SEQ ID NOS 50-55, respectively, in order of appearance. b, GST pull down assay between His:AtSUMO1 and GST:GID1a or GST in the presence (+) or absence (−) of GA3 (10 μM). Asterisk indicates a cross-reacting band. c, GST pull down assay between plant-derived GFP:RGA proteins with recombinant GST:GID1a or GST. d, mean germination rates (percentage of visible green cotyledons) of wild type (wt), ots1 ots2 double mutants and transgenic lines (T4). n=40-80 for each treatment/genotype combination. Error bar=s.d. of three biological replicates. e, images of NaCl-grown seedlings. Bar=1 cm f, model for the SUMOylation-dependent DELLA accumulation. For recombinant proteins, affinity purified GST:GID1a (0.1 μg) or GST were mixed with His:AtSUMO1 (0.1 μg) and incubated in 1× reaction buffer (Gamborg's B5—minimal organics, 50 mM NaCl, 0.05% Igepal CA-630, 1 mM DTT, 50 mM Tris HCl, pH 7.5). GA3 was added at a final concentration of 10 μM. Proteins were pulled-down using the μMACS GST Isolation Kit, according to the manufacturers' instruction (Miltenyi biotech). […]

T1 sequence (P55852 whole entry): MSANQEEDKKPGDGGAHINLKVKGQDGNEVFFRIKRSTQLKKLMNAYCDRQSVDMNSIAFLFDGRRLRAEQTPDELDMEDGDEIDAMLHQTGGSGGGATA

Regarding “SIM B V22A: SIM B peptide with substitution of a hydrophobic amino acid for an alanine residue (VVPLNTWALISN)”, in the series with SUMO1, the “SIM-SUMO1 interaction (far-western)” value is reported as “strongly reduced SIM-SUMO1 interaction” and the “interaction with SUMO1 (peptide array)” value is on record as “reduction in interaction”.

For “SIM B: peptide corresponding to putative SUMO interacting motif B in the GID1a N-terminal domain (SEQ ID NO: 58) (VVPLNTWVLISN; listed as Arabidopsis thaliana)”, in the series with SUMO1, the “SIM-SUMO1 interaction (far-western)” value was “Binding between the SIM and SUMO1 occurs”; the “interaction with SUMO1 (peptide array)” value is reported as “shown to be a genuine SIM”.

B1: His:OTS1 (protein)
chain: MTKRKKEVIDVDCSEKKDFVIDWSSAMDKEDEVPELEIVNTTKPTPPPPPTFFSDDQTDSPKLLTDRDLDEQLERKKAILTLGPGLPDKGEKIRLKIADLEEEKQRRVLEGSKMEVDRSSKVVSSTSSGSDVLPQGNAVSKDTSRGNADSKDTSRQGNADSKEVSRSTFSAVFSKPKTDSQSKKAFGKELEDLGCERRKHKAGRKPVTRLSNGWRLLPDVGKAEHSAKQFDSGLKESKGNKKSKEPYGKKRPMESSTYSLIDDDDDDDDDDDNDTSGHETPREWSWEKSPSQSSRRRKKSEDTVINVDEEEAQPSTVAEQAAELPEGLQEDICYPTRDDPHFVQVCLKDLECLAPREYLTSPVMNFYMRFLQQQISSSNQISADCHFFNTYFYKKLSDAVTYKGNDKDAFFVRFRRWWKGIDLFRKAYIFIPIHEDLHWSLVIVCIPDKKDESGLTILHLDSLGLHSRKSIVENVKRFLKDEWNYLNQDDYSLDLPISEKVWKNLPRRISEAVVQVPQQKNDFDCGPFVLFFIKRFIEEAPQRLKRKDLGMFDKKWFRPDEASALRIKIRNTLIELFRVSDQTE
Regarding B1, the “in vitro deSUMOylation of immunoprecipitated GFP:RGA (anti-SUMO1 immunoblot)” value in series [1] is “dramatic reduction of the higher molecular weight, anti-SUMO1 cross-reacting bands only in the tubes containing wild-type OTS1”.

B2: AtS1: Arabidopsis small ubiquitin-like modifier SUMO1, recombinant (protein)
chain: T2 chain 2
Take B2: in the series with GID1a [2] (25° C., HBS-EP buffer, proteins at 100 μg/ml), the “binding of AtS1 to GID1a (SPR sensorgram)” value was “binding and saturation of AtS1 to GID1a followed by disassociation”. Further, the “effect on RGA binding to GID1a (SPR combined response)” value with GID1a [2] (RGA and AtS1 together, in the presence of GA3 (100 μM)) was “combined response (blue) is reduced in the presence of AtS1”. In addition, the “binding to GST:GID1a (GST pull down)” value with GID1a [3] is “can bind to SUMO1 from Arabidopsis in a GA-independent manner”.

B3: SUMOylated RGA: plant-derived SUMOylated form of GFP:RGA DELLA protein (protein)
chain 1: T2 chain 1
chain 2: T2 chain 2
modifications: left off: large carriers
notes: plant-derived SUMOylated form of GFP:RGA DELLA protein
In the case of B3, the “binding to GST:GID1a (GST pull down)” value in the series with GID1a [3] was “could bind to GST:GID1a even in the absence of GA”.
